Data published in patent US20110152352, “SMAD PROTEINS CONTROL DROSHA-MEDIATED MIRNA MATURATION” (Tufts University, published 2011).

Experiments:
[1] = target: T1, Smad1 MH1 domain (UniProt Q15797 Q15797:1-219); test: pulldown; specific for miR-21 duplex; settings: tags: GST fusion, E. coli
Experimental: (§1) In vitro GST-SMAD-RNA pull down assay: GST-smad fusion proteins were expressed in E. coli, isolated and bound to glutathione S-sepharose beads. Following partial purification, Smad bound beads were washed 4×5 min at 4° C. in wash buffer (10 mM Tris-HCl pH 7.6, 0.5M LiCl, 0.1% triton) and 1×10 at 4° C. in binding buffer (20 mM Tris-HCl pH 7.6, 0.1M KCl, 0.1% Tween-20, 0.1% Triton). Beads were resuspended in 100 ul binding buffer and pre-incubated with 25 ug tRNA, 1 ng poly-[dI-dC] and 2 μl RNAse inhibitor for 10 minutes before the addition of 10 pmoles synthesized mature miRNA or ˜20 pmoles in vitro transcribed 156 by pri-miR-21. Following 1 hr incubation with rocking at 4° C., beads were washed 4× with binding buffer. 2 consecutive elutions of bound RNA were performed by addition of 100 ul Elution buffer (1% SDS, 0.15M NaCl) followed by rocking at room temperature for 15 min. The eluates were combined, […] Trizol-LS (Invitrogen) was added and the RNA was purified as usual. RNA was re-suspended in 20 μl water and 1 μl was used in a reverse transcriptase reaction followed by quantitative real time PCR to detect relative levels of RNA binding to Smad-GST fusion proteins.

[2] = target: T2, Smad1 full length (UniProt Q15797 Q15797:1-465); test: pulldown; control duplex without CAGAC; settings: tags: GST fusion, E. coli
Experimental: as §1

[3] = target: T3, Smad3 full length (UniProt P84022 P84022:1-425); test: pulldown; control duplex without CAGAC; settings: tags: GST fusion, E. coli
Experimental: as §1

[4] = target: Smad4 full length (UniProt Q13485 Q13485:1-552); test: pulldown; settings: tags: GST fusion, E. coli
Experimental: as §1

[5] = target: T1, Smad1 MH1 domain; test: pulldown; excess yeast tRNA; settings: tags: GST fusion, E. coli
Experimental: (§2) To examine the interaction of SMAD proteins with double stranded CAGAC sequences of miRNA we performed RNA pull down experiments. Gst-Smad fusion proteins were expressed in E. coli and partially purified. As a proof of principal, we used mature miR-21 sequences (see below). ssRNA oligonucleotides were annealed to make dsRNA. GST-Pull down experiments were performed using the standard methods including aspects of those disclosed herein in the presence of excess amount of non-specific RNAa (yeast tRNAs). Full length GST-SMAD1 fusion protein and a GST-SMAD1 N-terminal (n219) MH1 domain interact with double stranded CAGAC sequences of miR-21
(§3) In vitro GST-SMAD-RNA pull down assay: GST-smad fusion proteins were expressed in E. coli, isolated and bound to glutathione S-sepharose beads. Following partial purification, Smad bound beads were washed 4×5 min at 4° C. in wash buffer (10 mM Tris-HCl pH 7.6, 0.5M LiCl, 0.1% triton) and 1×10 at 4° C. in binding buffer (20 mM Tris-HCl pH 7.6, 0.1M KCl, 0.1% Tween-20, 0.1% Triton). […] RNA was re-suspended in 20 μl water and 1 μl was used in a reverse transcriptase reaction followed by quantitative real time PCR to detect relative levels of RNA binding to Smad-GST fusion proteins.

[6] = target: T2, Smad1 full length; test: pulldown; excess yeast tRNA; settings: tags: GST fusion, E. coli
Experimental: as §2, §3

[7] = target: T1, Smad1 MH1 domain; test: pulldown; MH1 sufficient; settings: tags: GST fusion, E. coli
Experimental: as §1

[8] = target: T3, Smad3 full length; test: pulldown; settings: tags: GST fusion, E. coli
Experimental: as §1

[9] = target: T2, Smad1 full length; test: pulldown; tRNA and poly dI-dC, 0.1 M KCl, 4 C; settings: tags: GST fusion, E. coli
Experimental: as §1

[10] = target: Smad1 (UniProt Q15797 Q15797:1-465); test: RNA-ChIP; settings: tags: Flag, Cos7; hairpin with flanks
Experimental: RNA-ChIP. Was performed as previously described [Fukuda, T. et al., Nat Cell Biol 9, 604-611 (2007)]. Briefly, PASMCs or Cos7 cells were crosslinked for 15 minutes with 1% formaldehyde, the cell pellet was resuspended in Buffer A (5 mM PIPES, pH 8.0, 85 mM KCl, 0.5% Nonidet P-40). After 10 min on ice, the crude nuclei fraction was isolated by centrifugation, and then suspended in Buffer B (1% SDS, 10 mM EDTA, 50 mM Tris-HCl, pH 8.1). After nuclei were disrupted by sonication, the lysates were cleared and subjected to immunoprecipitation with anti-Flag, anti-Smad1/5/8, Smad2/3, or p68 antibody, prior to stringent washing, and elution. The RNA was isolated using Trizol (invitrogen). Pellets were resuspended in 100 μl TE and incubated with DNase I (10 U) for 30 min at 37° C. to remove any remaining DNA. Following extraction with phenol:chloroform (5:1), RNA was precipitated with ethanol and dissolved in 20 μl of water. […] of RNA was used for a 20 μl cDNA synthesis reaction. Quantitative PCR reactions were then performed by real-time PCR machine (iQ5, Bio-Rad). Average of three experiments each performed in triplicate with standard errors are presented.

T1 sequence (Q15797 1-219, one chain of several): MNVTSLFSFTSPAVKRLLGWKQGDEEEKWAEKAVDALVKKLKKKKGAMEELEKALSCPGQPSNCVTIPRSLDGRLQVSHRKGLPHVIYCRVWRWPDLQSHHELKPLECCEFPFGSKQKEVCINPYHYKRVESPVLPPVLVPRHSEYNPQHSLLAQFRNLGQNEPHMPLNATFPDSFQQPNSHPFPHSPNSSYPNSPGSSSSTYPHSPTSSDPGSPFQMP
T2 sequence (Q15797 whole entry, the tested form may be a part, one chain of several): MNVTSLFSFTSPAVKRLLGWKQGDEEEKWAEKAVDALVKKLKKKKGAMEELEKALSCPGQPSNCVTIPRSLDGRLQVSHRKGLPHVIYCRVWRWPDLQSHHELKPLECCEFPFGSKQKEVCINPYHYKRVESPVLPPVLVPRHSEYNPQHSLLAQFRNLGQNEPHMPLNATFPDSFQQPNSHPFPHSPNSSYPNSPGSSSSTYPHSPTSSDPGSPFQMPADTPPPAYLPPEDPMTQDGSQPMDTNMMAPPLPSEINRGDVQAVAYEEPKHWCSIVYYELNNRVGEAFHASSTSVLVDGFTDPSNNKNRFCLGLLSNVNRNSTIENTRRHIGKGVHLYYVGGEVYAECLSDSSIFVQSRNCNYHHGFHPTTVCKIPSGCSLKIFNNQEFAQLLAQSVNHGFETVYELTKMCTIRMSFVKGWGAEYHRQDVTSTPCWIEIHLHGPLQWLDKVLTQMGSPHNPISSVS
T3 sequence (P84022 whole entry, the tested form may be a part, one chain of several): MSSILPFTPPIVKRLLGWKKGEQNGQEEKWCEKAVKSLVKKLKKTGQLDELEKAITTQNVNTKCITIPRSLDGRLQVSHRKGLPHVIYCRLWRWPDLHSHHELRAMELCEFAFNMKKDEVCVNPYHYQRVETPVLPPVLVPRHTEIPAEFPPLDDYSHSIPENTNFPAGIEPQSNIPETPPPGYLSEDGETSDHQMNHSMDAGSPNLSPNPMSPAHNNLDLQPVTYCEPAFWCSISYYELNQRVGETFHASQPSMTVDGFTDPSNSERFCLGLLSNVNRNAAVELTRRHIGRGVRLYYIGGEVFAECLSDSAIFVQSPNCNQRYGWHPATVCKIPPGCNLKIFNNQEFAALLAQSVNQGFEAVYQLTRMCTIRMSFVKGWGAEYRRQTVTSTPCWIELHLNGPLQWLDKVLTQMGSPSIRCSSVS
Smad4 full length, sequence (Q13485 whole entry, the tested form may be a part, one chain of several): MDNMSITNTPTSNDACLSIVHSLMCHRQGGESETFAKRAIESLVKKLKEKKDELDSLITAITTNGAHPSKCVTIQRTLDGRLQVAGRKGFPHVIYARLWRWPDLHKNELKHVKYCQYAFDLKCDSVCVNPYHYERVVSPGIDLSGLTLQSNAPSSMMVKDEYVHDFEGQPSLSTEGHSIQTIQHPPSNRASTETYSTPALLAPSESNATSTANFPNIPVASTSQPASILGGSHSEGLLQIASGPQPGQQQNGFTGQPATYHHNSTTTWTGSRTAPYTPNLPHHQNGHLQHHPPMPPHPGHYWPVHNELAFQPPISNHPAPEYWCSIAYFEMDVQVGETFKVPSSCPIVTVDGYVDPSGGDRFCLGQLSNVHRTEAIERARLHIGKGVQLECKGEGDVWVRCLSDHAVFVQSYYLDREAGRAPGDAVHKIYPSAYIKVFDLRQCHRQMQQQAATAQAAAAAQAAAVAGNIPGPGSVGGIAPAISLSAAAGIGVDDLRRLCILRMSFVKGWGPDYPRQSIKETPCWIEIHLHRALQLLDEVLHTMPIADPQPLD
Smad1, sequence (Q15797 whole entry, one chain of several): as the sequence (Q15797 whole entry, the tested form may be a part, one chain of several) above

B1: cel-miR-67 RNA duplex (dsRNA)
RNA 1: UCACAACCUCCUAGAAAGAGUAGA
RNA 2: UCUACUCUUUCUAGGAGGUUGUGA
binding result [1]: no binding
binding result [2]: no binding
binding result [3]: no binding
binding result [4]: no binding

B2: miR-21 duplex (annealed oligos) (dsRNA)
RNA 1: UAGCUUAUCAGACUGAUGUUGA
RNA 2: UCAACAUCAGUCUGAUAAGCUA
binding result [5]: binds
binding result [6]: binds

B3: miR-21 RNA duplex (dsRNA)
RNA 1: UAGCUUAUCAGACUGAUGUUGA
RNA 2: UCAACAUCAGUCUGAUAAGCUA
binding result [7]: binds
binding result [4]: no binding
binding result [8]: binds
binding result [9]: binds

B4: pri-miR-21 from pCMV-miR-21 (480 nt; hairpin sequence given) (ssRNA)
RNA: UGUCGGGUAGCUUAUCAGACUGAUGUUGACUGUUGAAUCUCAUGGCAACACCAGUCGAUGGGCUGUCUGACA
binding signal [10]: 3 fold induction by BMP4
